# Reference: PMC6311151 (Biochimica et biophysica acta. Molecular and cell biology …, 2018)
# B1: Gloeobacter ligand-gated ion channel (natural protein)
# chain: QDMVSPPPPIADEPLTVNTGIYLIECYSLDDKAETFKVNAFLSLSWKDRRLAFDPVRSGVRVKTYEPEAIWIPEIRFVNVENARDADVVDISVSPDGTVQYLERFSARVLSPLDFRRYPFDSQTLHIYLIVRSVDTRNIVLAVDLEKVGKNDDVFLTGWDIESFTAVVKPANFALEDRLESKLDYQLRISRQYFSYIPNIILPMLFILFISWTAFWSTSYEANVTLVVSTLIAHIAFNILVETNLPKTPYMTYTGAIIFMIYLFYFVAVIEVTVQHYLKVESQPARAASITRASRIAFPVVFLLANIILAFLFFGF
# Target: the molecule itself
# Experiment: SEC
protein,measurement,value
B1,stoichiometry N,5
